Measurements: patent publication US20250122300A1 (INSERM INSTITUT NATIONAL DE LA SANT ET DE LA RECHERCHE M …, published 2025)
One block for each molecule: values may come before it.

How the values were obtained:
[1] = molecular target: macaque CD45RC (cynomolgus macaque); experiment: flow cytometry, cynomolgus macaque PBMC, CD3+ cells (p-1488)
[2] = molecular target: macaque CD45RC (cynomolgus macaque); experiment: flow cytometry, cynomolgus macaque PBMC, CD3- cells
human CD45RC [3] = molecular target: T1, human CD45RC (human, UniProt P08575 26-1306); experiment: flow cytometry, human whole blood; CD8+ T [1]
T1 construct: In flow cytometry the protein is on human PBMC (which may also carry other CD45 isoforms with the C determinant); in the SPR assay it is in solubilised membranes of CD45RC-high PBMC or of CHO cells transfected with CD45RC; also called hCD45RC
T1 sequence: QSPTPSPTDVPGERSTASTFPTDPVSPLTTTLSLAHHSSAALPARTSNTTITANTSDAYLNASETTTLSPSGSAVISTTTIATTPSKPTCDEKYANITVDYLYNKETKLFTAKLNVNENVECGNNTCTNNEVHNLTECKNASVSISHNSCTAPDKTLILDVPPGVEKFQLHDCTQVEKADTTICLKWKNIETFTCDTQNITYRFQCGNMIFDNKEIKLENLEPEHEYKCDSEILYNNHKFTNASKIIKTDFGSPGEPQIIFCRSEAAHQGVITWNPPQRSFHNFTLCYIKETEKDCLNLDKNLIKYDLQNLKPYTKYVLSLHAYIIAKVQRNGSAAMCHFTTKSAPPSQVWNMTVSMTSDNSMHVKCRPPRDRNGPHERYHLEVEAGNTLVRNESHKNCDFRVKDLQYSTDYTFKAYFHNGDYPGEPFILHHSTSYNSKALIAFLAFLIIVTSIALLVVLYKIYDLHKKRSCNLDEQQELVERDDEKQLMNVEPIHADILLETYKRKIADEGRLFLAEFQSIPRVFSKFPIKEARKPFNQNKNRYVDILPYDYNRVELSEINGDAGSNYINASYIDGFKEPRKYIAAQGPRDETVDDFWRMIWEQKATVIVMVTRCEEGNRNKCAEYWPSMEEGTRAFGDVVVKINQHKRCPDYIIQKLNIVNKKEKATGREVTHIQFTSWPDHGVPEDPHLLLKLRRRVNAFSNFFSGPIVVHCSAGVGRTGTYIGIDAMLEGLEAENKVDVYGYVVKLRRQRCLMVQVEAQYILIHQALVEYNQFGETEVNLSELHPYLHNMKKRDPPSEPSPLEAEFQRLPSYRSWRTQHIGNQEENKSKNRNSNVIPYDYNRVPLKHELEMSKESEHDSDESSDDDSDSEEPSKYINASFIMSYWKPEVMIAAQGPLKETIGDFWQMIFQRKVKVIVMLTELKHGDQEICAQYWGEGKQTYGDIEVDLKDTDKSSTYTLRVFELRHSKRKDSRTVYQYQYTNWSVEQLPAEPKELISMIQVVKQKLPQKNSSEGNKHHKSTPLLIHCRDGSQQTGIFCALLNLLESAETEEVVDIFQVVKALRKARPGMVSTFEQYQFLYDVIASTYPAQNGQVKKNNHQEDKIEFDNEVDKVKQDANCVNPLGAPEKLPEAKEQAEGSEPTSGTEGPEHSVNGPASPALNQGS

human CD45RC [4] = molecular target: T1, human CD45RC; experiment: flow cytometry, human whole blood; T cells [1]
human CD45RC [5] = molecular target: T1, human CD45RC; experiment: flow cytometry, human whole blood; NKT [2]
human CD45RC [6] = molecular target: T1, human CD45RC; experiment: flow cytometry, human whole blood; Basophils [3]
human CD45RC [7] = molecular target: T1, human CD45RC; experiment: flow cytometry, human whole blood; ILC3 [2]
human CD45RC [8] = molecular target: T1, human CD45RC; experiment: flow cytometry, human whole blood; Monocytes CD14intCD16+ [3]
human CD45RC [9] = molecular target: T1, human CD45RC; experiment: flow cytometry, human whole blood; pDC [3]
human CD45RC [10] = molecular target: T1, human CD45RC; experiment: flow cytometry, human whole blood; iNKT [2]
human CD45RC [11] = molecular target: T1, human CD45RC; experiment: flow cytometry, human whole blood; CD3+ TCRab [1]
human CD45RC [12] = molecular target: T1, human CD45RC; experiment: flow cytometry, human whole blood; Monocytes CD14highCD16- [2]
human CD45RC [13] = molecular target: T1, human CD45RC; experiment: flow cytometry, human whole blood; CD4+ Treg (CD25+CD127-) [1]
human CD45RC [14] = molecular target: T1, human CD45RC; experiment: flow cytometry, human whole blood; ILC1 [2]
human CD45RC [15] = molecular target: T1, human CD45RC; experiment: flow cytometry, human whole blood; CD4+ T [1]
human CD45RC [16] = molecular target: T1, human CD45RC; experiment: flow cytometry, human whole blood; NK [1]
human CD45RC [17] = molecular target: T1, human CD45RC; experiment: flow cytometry, human whole blood; mDC [3]
human CD45RC [18] = molecular target: T1, human CD45RC; experiment: flow cytometry, human whole blood; CD3+ TCRgd [1]
human CD45RC [19] = molecular target: T1, human CD45RC; experiment: flow cytometry, human whole blood; B cells [1]
human CD45RC [20] = molecular target: T1, human CD45RC; experiment: flow cytometry, human whole blood; Monocytes CD14+ [2]
human CD45RC [21] = molecular target: T1, human CD45RC; experiment: flow cytometry, human whole blood; ILC2 [2]
human CD45RC [22] = molecular target: T1, human CD45RC; experiment: flow cytometry, human whole blood; Neutrophils [3]
human CD45RC [23] = molecular target: T1, human CD45RC; experiment: flow cytometry, human whole blood; Eosinophils [3]
human CD45RC [24] = molecular target: T1, human CD45RC; experiment: flow cytometry, human whole blood; MAIT [2]
[25] = molecular target: macaque CD45RC (cynomolgus macaque); experiment: flow cytometry, cynomolgus macaque PBMC, CD3+ cells (p-1488); 10 µg/ml (p-1486)
[26] = molecular target: macaque CD45RC (cynomolgus macaque); experiment: flow cytometry, cynomolgus macaque PBMC, CD3- cells; 10 µg/ml (p-1486)
human CD45RC [27] = molecular target: T1, human CD45RC; experiment: SPR (BIAcore 3000 / T200), ABIS-45RC immobilised on CM5 chip, solubilised membranes of CD45RC-high PBMC or CD45RC-transfected CHO cells as analyte, 25 C, single cycle kinetics
From the text: Briefly, 1×10⁷ CD45RC^high PBMCs or CHO cells expressing CD45RC after plasmid transfection were solubilized using the Mem-PER membrane isolation kit (Thermo-fisher).

Molecule: Isotype (antibody)
% of cells CD45RC+ [1]: 4.37%
% of cells CD45RC+ [2]: 2.7%

Molecule: MT2 (antibody)
% of cells CD45RC high (human CD45RC [3]): 38.8%
% of cells CD45RC low (human CD45RC [3]): 39.7%
% of cells CD45RC negative (human CD45RC [3]): 21.5%
% of cells CD45RC high (human CD45RC [4]): 7.43%
% of cells CD45RC low (human CD45RC [4]): 49.7%
% of cells CD45RC negative (human CD45RC [4]): 42.9%
% of cells CD45RC high (human CD45RC [5]): 34.4%
% of cells CD45RC low (human CD45RC [5]): 54.2%
% of cells CD45RC negative (human CD45RC [5]): 11.4%
% of cells CD45RC high (human CD45RC [6]): 0%
% of cells CD45RC low (human CD45RC [6]): 7.3%
% of cells CD45RC negative (human CD45RC [6]): 92.7%
% of cells CD45RC high (human CD45RC [7]): 50%
% of cells CD45RC low (human CD45RC [7]): 50%
% of cells CD45RC negative (human CD45RC [7]): 0%
% of cells CD45RC high (human CD45RC [8]): 6.45%
% of cells CD45RC low (human CD45RC [8]): 87.7%
% of cells CD45RC negative (human CD45RC [8]): 5.87%
% of cells CD45RC high (human CD45RC [9]): 1.84%
% of cells CD45RC low (human CD45RC [9]): 97.9%
% of cells CD45RC negative (human CD45RC [9]): 0.23%
% of cells CD45RC high (human CD45RC [10]): 24.1%
% of cells CD45RC low (human CD45RC [10]): 61.6%
% of cells CD45RC negative (human CD45RC [10]): 14.3%
% of cells CD45RC high (human CD45RC [11]): 8.34%
% of cells CD45RC low (human CD45RC [11]): 46.2%
% of cells CD45RC negative (human CD45RC [11]): 45.5%
% of cells CD45RC high (human CD45RC [12]): 0.091%
% of cells CD45RC low (human CD45RC [12]): 38.3%
% of cells CD45RC negative (human CD45RC [12]): 61.6%
% of cells CD45RC high (human CD45RC [13]): 3.52%
% of cells CD45RC low (human CD45RC [13]): 19.8%
% of cells CD45RC negative (human CD45RC [13]): 76.7%
% of cells CD45RC high (human CD45RC [14]): 9.3%
% of cells CD45RC low (human CD45RC [14]): 27.5%
% of cells CD45RC negative (human CD45RC [14]): 63.2%
% of cells CD45RC high (human CD45RC [15]): 3.64%
% of cells CD45RC low (human CD45RC [15]): 47.2%
% of cells CD45RC negative (human CD45RC [15]): 49.2%
% of cells CD45RC high (human CD45RC [16]): 28.6%
% of cells CD45RC low (human CD45RC [16]): 70.4%
% of cells CD45RC negative (human CD45RC [16]): 1%
% of cells CD45RC high (human CD45RC [17]): 0%
% of cells CD45RC low (human CD45RC [17]): 14.3%
% of cells CD45RC negative (human CD45RC [17]): 85.7%
% of cells CD45RC high (human CD45RC [18]): 1.93%
% of cells CD45RC low (human CD45RC [18]): 90.6%
% of cells CD45RC negative (human CD45RC [18]): 7.46%
% of cells CD45RC high (human CD45RC [19]): 79.9%
% of cells CD45RC low (human CD45RC [19]): 20.1%
% of cells CD45RC negative (human CD45RC [19]): 0%
% of cells CD45RC high (human CD45RC [20]): 0.43%
% of cells CD45RC low (human CD45RC [20]): 43.9%
% of cells CD45RC negative (human CD45RC [20]): 55.6%
% of cells CD45RC high (human CD45RC [21]): 45%
% of cells CD45RC low (human CD45RC [21]): 49.5%
% of cells CD45RC negative (human CD45RC [21]): 5.5%
% of cells CD45RC high (human CD45RC [22]): 0.014%
% of cells CD45RC low (human CD45RC [22]): 19.3%
% of cells CD45RC negative (human CD45RC [22]): 80.7%
% of cells CD45RC high (human CD45RC [23]): 0.47%
% of cells CD45RC low (human CD45RC [23]): 90.5%
% of cells CD45RC negative (human CD45RC [23]): 9.08%
% of cells CD45RC high (human CD45RC [24]): 5.89%
% of cells CD45RC low (human CD45RC [24]): 71%
% of cells CD45RC negative (human CD45RC [24]): 23.2%

B1: Anti-45RC Variant A (antibody, human IgG1, kappa, V domains shown)
VH: QVQLVQSGAEVKKPGASVKVSCKASGYTFTNYYIGWVRQAPGQGLEWIGDIFPGGDYANSNEKFKGRVTLTADTSISTAYMELSRLRSDDTVVYYCVRRNFDYWGQGTLVTVSS
VL: DIQLTQSPSFLSASVGDRVTITCSASSSVSYMHWFQQKPGKAPKLWIYNTSNLPSGVPSRFSGSGSGTEYTLTISSLQPEDFATYYCQQRSSYPLTFGGGTKVEIKR
% of cells CD45RC+ [25]: 17.2%
% of cells CD45RC+ [26]: 75.6%

B4: ABIS-45RC (antibody, mouse IgG1, kappa, V domains shown)
VH: QVQLQQSGAELVRPGTSVKMSCKAAGYTFTNYYIGWVKQRPGHGLEWIGDIFPGGDYANSNEKFKGKATLTADTSSSTAYMQLSSLTSEDSAIYYCVRRNFDYWGQGTTLTVSS
VL: QIVLTQSPTIMSASPGEKVTITCSASSSVSYMHWFQQKTGTSPRLWIYNTSNLPSGVPARFSGSGSGTSYSLTISRMEAEDAATYYCQQRSSYPLTFGAGTKLELKR
notes: the variable domains are the same; also called murine ABIS-45RC; murine anti-hCD45RC antibody of the invention
Kd (human CD45RC [27]): 50 nM
koff (human CD45RC [27]): 0.0144 s⁻¹
kon (human CD45RC [27]): 291000 M⁻¹ s⁻¹
% of cells CD45RC+ [25]: 26.1%
% of cells CD45RC+ [26]: 74.1%

More lines, now with the values ahead:

% of cells CD45RC+ [25]: 15.2%
% of cells CD45RC+ [26]: 82.6%
B2: Anti-45RC Variant A3 (antibody, human IgG1, kappa, V domains shown)
VH: QVQLVQSGAEVKKPGASVKVSCKASGYTFTNYYIGWVRQAPGQGLEWIGDIFPGGGYTNYAEKFQGRVTLTADTSISTAYMELSRLRSDDTVVYYCVRRNFDYWGQGTLVTVSS
VL: DIQLTQSPSFLSASVGDRVTITCRASSSVSYMHWYQQKPGKAPKLWIYNTSNLPSGVPSRFSGSGSGTEYTLTISSLQPEDFATYYCQQRSSYPLTFGGGTKVEIKR

% of cells CD45RC+ [25]: 15.6%
% of cells CD45RC+ [26]: 76.3%
B3: Anti-45RC Variant A1 (antibody, human IgG1, kappa, V domains shown)
VH: QVQLVQSGAEVKKPGASVKVSCKASGYTFTNYYIGWVRQAPGQGLEWIGDIFPGGDYTNYAEKFQGRVTLTADTSISTAYMELSRLRSDDTVVYYCVRRNFDYWGQGTLVTVSS
VL: DIQLTQSPSFLSASVGDRVTITCRASSSVSYMHWYQQKPGKAPKLWIYNTSNLPSGVPSRFSGSGSGTEYTLTISSLQPEDFATYYCQQRSSYPLTFGGGTKVEIKR
